Measured values reported in IntAct's records for PubMed 20969867.
One block for each substance: values may come before it.

Legend:
kmt2a_human KMT2A [1] = molecular target: kmt2a_human KMT2A (UniProt Q03164)
kmt2a_human KMT2A [2] = molecular target: kmt2a_human KMT2A (UniProt Q03164); remark: listed apart in the source
kmt2a_human KMT2A [3] = molecular target: kmt2a_human KMT2A (UniProt Q03164); remark: listed apart in the source
kmt2a_human KMT2A [4] = molecular target: kmt2a_human KMT2A (UniProt Q03164); remark: listed apart in the source
kmt2a_human KMT2A [5] = molecular target: kmt2a_human KMT2A (UniProt Q03164); remark: listed apart in the source
kmt2a_human KMT2A [6] = molecular target: kmt2a_human KMT2A (UniProt Q03164); remark: listed apart in the source
kmt2a_human KMT2A [7] = molecular target: kmt2a_human KMT2A (UniProt Q03164); remark: listed apart in the source

Chain of kmt2a_human KMT2A (Q03164 whole entry): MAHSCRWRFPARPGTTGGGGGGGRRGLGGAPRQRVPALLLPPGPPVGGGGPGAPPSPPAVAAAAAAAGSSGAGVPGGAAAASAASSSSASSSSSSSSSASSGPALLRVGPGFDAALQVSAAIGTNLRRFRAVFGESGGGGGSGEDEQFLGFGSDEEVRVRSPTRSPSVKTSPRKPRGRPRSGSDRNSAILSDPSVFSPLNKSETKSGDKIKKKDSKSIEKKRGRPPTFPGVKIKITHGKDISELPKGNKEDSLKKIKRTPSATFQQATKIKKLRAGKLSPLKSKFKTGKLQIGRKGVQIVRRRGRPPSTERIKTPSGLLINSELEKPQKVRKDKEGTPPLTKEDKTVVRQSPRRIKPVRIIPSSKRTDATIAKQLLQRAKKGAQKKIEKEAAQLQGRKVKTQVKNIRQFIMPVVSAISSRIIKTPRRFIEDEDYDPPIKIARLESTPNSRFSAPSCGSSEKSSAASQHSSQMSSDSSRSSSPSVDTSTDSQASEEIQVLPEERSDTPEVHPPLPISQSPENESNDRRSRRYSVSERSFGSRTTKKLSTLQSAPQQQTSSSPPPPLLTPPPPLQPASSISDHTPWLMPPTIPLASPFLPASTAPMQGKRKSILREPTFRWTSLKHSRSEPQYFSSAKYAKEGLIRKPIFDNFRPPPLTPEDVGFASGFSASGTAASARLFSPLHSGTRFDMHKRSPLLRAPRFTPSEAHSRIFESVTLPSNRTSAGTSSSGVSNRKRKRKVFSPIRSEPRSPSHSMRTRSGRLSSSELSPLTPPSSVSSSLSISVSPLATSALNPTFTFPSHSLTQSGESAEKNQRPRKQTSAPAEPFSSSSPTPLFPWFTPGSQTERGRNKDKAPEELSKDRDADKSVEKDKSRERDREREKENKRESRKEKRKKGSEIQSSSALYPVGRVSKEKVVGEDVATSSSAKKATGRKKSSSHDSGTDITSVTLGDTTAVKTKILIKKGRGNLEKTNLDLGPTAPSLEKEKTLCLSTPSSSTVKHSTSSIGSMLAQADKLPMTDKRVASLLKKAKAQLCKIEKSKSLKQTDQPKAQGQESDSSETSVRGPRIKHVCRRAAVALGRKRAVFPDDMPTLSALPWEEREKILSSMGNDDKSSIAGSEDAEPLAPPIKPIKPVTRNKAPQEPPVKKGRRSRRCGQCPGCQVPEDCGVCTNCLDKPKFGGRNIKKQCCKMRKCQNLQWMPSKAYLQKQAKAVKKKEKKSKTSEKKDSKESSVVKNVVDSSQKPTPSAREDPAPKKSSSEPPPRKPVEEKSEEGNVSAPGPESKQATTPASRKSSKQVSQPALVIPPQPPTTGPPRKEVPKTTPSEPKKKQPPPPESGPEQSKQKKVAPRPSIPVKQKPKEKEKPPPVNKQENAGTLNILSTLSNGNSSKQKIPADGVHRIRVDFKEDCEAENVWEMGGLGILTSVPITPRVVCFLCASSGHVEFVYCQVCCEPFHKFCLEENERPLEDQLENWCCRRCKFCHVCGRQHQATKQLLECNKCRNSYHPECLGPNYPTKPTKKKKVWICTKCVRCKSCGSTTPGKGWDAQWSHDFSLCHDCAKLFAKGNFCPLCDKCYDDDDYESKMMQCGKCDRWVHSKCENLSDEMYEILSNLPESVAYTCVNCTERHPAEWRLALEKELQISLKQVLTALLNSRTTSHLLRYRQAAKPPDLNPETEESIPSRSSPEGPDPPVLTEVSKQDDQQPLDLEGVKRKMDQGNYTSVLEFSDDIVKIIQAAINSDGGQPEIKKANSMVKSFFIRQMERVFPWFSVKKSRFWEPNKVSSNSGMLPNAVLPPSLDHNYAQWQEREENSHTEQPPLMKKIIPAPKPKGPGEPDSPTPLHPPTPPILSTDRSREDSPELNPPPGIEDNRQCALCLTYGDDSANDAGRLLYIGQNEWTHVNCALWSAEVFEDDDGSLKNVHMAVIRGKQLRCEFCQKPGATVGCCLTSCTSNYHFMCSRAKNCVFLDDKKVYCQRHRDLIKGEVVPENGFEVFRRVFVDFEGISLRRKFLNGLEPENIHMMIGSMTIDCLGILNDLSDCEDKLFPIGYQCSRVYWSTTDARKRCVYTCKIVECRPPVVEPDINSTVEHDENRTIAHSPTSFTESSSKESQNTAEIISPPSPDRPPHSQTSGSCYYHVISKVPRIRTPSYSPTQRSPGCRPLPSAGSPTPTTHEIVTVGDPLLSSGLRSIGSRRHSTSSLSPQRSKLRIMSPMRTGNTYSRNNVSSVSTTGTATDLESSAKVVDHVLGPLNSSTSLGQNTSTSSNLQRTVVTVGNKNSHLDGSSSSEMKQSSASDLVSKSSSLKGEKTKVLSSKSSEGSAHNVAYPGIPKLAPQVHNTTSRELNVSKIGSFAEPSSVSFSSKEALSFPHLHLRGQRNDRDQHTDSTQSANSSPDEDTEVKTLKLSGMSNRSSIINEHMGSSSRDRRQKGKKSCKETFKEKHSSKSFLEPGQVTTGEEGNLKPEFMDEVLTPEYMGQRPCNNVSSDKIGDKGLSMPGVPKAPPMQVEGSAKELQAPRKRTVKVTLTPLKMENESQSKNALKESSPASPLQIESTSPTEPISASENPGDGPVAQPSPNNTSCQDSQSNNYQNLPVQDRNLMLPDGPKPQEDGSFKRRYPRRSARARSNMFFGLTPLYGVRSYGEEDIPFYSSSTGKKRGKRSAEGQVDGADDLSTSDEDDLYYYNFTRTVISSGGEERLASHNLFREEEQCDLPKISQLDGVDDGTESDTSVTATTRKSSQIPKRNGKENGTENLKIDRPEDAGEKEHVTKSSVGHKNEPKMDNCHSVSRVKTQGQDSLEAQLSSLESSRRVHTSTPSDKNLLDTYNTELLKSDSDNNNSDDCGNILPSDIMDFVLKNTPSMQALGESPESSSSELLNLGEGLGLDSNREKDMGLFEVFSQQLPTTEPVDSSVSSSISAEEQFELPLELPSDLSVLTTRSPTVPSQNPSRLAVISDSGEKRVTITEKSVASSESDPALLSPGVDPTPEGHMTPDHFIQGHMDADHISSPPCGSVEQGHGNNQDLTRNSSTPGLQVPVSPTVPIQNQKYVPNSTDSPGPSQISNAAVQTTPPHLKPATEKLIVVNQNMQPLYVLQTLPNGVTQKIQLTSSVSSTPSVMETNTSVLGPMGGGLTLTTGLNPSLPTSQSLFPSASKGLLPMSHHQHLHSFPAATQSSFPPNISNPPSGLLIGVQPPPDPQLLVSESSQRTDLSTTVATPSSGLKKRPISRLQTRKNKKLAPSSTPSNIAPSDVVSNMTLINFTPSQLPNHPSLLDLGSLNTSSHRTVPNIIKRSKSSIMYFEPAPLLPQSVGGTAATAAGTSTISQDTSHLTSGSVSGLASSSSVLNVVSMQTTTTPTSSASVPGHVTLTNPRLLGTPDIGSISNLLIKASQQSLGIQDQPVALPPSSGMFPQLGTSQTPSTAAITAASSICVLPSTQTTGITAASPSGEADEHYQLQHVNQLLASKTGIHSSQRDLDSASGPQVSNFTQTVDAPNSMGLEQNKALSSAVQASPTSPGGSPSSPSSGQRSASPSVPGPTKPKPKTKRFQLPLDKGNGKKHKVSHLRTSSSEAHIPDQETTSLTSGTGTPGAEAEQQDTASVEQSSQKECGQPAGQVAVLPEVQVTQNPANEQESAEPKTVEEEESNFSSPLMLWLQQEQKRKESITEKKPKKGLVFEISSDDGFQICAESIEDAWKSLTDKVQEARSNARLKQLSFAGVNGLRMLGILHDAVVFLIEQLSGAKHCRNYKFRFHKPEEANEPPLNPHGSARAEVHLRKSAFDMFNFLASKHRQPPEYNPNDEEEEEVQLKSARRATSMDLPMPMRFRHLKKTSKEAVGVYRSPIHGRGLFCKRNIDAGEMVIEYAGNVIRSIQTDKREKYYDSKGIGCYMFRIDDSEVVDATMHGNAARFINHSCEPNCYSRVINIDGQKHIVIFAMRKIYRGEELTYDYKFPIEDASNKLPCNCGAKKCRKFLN

- effect of a mutation on the interaction (kmt2a_human KMT2A [1]): decreasing interaction
Substance: Histone lysine acetyltransferase CREBBP (Mus musculus), P45481 R624A

- effect of a mutation on the interaction (kmt2a_human KMT2A [2]): decreasing interaction
Substance: Histone lysine acetyltransferase CREBBP (Mus musculus), P45481 R668A

- effect of a mutation on the interaction (kmt2a_human KMT2A [3]): disrupting interaction
- effect of a mutation on the interaction (kmt2a_human KMT2A [4]): decreasing interaction
Substance: Histone lysine acetyltransferase CREBBP (Mus musculus), P45481 L628A

- effect of a mutation on the interaction (kmt2a_human KMT2A [5]): decreasing interaction
Substance: Histone lysine acetyltransferase CREBBP (Mus musculus), P45481 L664A

- effect of a mutation on the interaction (kmt2a_human KMT2A [6]): decreasing interaction
Substance: Histone lysine acetyltransferase CREBBP (Mus musculus), P45481 Y631A

- effect of a mutation on the interaction (kmt2a_human KMT2A [7]): decreasing interaction
Substance: Histone lysine acetyltransferase CREBBP (Mus musculus), P45481 F612A
